B1: CR14012 (antibody, V domains shown)
VH: QVQLQESGGGVVQPGRSLRLSCAASGFSFSTYGMHWVRQAPGKGLEWVAVISYDGSNKYYADSVKGRFTISRDNAKNTLYLQMNSLRAEDTAVYYCGRDSGYTTNWYPGGYWGQGTLVTVSS
VL: not shown
notes: also called sc14-012; anti-NA IgG
B2: CR14017 (antibody, V domains shown)
VH: EVQLVETGGGVVQPGRSLRLSCAASGFTFNTHAMHWVRQAPGKGLEWLAVISYDGNIKYYADSVKGRFTISRDSSKNTLYLLMNSLRAEDTAIYYCARDRGDYNYLPSDYWGQGTLVTVSS
VL: not shown
notes: also called sc14-017; anti-NA IgG
B3: CR14011 (antibody, V domains shown)
VH: EVQLVETGGGVVQPGRSLRLSCSVSGFSFTTYAMHWVRQAPGKGLEWVAIISDDATKKYYADSVKGRFTISRDNSRNTLILQMNSLRAEDTGVYYCAKDGDPGYDSRYYYYYGMDVWGQGTTVTVSS
VL: SYVLTQPPSVSVAPGKTARITCGGNNIGSKSVHWYQQKPGQAPVLVIYYDSDRPSGIPERFSGSNSGNTATLTISRVEAGDEADYYCQVWDSSSDHPVFGGGTKLTVL
notes: also called sc14-011; anti-NA IgG

Columns and labels:
[1] = target: T1, neuraminidase (NA) of influenza A virus H5N1 A/Hong Kong/156/97 (Influenza A virus A/Hong Kong/156/97 …, UniProt Q9W7Y7 1-450); assay: flow cytometry on 293-F cells transfected with NA
T1 construct: also called A/Hong Kong/156/97 (H5N1); NA of influenza virus A N1 subtype
T1 sequence (Q9W7Y7 whole entry): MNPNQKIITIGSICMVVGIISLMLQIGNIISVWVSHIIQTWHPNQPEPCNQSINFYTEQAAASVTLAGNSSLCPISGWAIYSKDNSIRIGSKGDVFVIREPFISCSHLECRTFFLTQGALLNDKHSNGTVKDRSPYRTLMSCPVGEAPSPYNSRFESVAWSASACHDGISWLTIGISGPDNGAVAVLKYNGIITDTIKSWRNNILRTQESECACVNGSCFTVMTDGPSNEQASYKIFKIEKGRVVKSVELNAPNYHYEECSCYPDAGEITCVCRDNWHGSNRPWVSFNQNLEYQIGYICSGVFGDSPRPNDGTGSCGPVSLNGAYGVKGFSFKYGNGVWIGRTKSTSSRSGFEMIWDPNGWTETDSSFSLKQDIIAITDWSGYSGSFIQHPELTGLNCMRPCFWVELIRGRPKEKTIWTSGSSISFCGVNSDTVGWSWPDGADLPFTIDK

[2] = target: human FcγRIIIa receptor (FcγRIIIa V158) (human, UniProt P08637 17-254); assay: cell-based or functional assay
Sequence of human FcγRIIIa receptor (FcγRIIIa V158) (P08637 17-254 F176V limits assumed): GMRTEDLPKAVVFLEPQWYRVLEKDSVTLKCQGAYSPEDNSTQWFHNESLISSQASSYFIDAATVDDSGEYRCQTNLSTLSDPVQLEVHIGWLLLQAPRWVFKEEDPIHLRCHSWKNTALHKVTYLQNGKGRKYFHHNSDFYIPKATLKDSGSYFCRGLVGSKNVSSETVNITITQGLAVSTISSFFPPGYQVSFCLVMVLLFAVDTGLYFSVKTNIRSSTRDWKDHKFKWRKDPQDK

[3] = target: T2, neuraminidase (NA) of influenza B virus B/Florida/04/2006 (Yamagata lineage) (Influenza B virus B/Florida/04/2006); assay: cell-based or functional assay
[4] = target: neuraminidase (NA) of influenza A virus H1N1 strain A/New Caledonia/20/1999 (Influenza A virus A/New …); assay: cell-based or functional assay
[5] = target: neuraminidase (NA) of influenza A virus H3N2 strain A/Perth/16/2009 (Influenza A virus A/Perth/16/2009 (H3N2)); assay: cell-based or functional assay
[6] = target: T3, neuraminidase (NA) of influenza B virus B/Malaysia/2506/2004 (Victoria lineage) (Influenza B virus B/Malaysia/2506/2004); assay: cell-based or functional assay
[7] = target: T2, neuraminidase (NA) of influenza B virus …; assay: cell-based or functional assay; remark: listed apart in the source
[8] = target: T3, neuraminidase (NA) of influenza B virus …; assay: cell-based or functional assay; remark: listed apart in the source

| Binder | MFI [1] | ADCC Reporter Bioassay EC50; A549 target cells infected with B/Lee/1940 [2] | Neuraminidase inhibition activity, EC50 (NA-XTD assay, whole virus) [3] | Neuraminidase inhibition activity, EC50 (NA-XTD assay, whole virus) [4] | Neuraminidase inhibition activity, EC50 (NA-XTD assay, whole virus) [5] | Neuraminidase inhibition activity, EC50 (NA-XTD assay, whole virus) [6] | Virus neutralization assay (VNA) on MDCK-SIAT1 cells, IC50 [7] | Virus neutralization assay (VNA) on MDCK-SIAT1 cells, IC50 [8] |
| --- | --- | --- | --- | --- | --- | --- | --- | --- |
| B1 | < 250 mfi | – | – | – | – | – | – | – |
| B2 | < 250 mfi | 0.08 µg/mL | – | – | – | – | – | – |
| B3 | < 250 mfi | – | 0.004 µg/mL | > 50 µg/mL | > 50 µg/mL | 0.013 µg/mL | 2.21 µg/mL | 1.19 µg/mL |

Reference: patent US20200002406A1 (Janssen / Centocor, published 2020)
